For data set [1], the target named is eIF4A1 Phe163His (Homo sapiens, UniProt P60842 1-406, F163H). As to the kind of experiment: fluorescence polarization; 1 mM AMP-PNP, DMSO; 20 mM HEPES-NaOH pH 7.5, 150 mM NaCl, 1 mM MgCl2, 1 mM DTT, 5% glycerol, 1% DMSO, 10 nM FAM-RNA, 0-25 uM protein (source data up to 50), 1 mM AMP-PNP or 1 mM ADP + 1 mM Na2HPO4, room temperature 30 min; Hill fit, n = 3. As to conditions: protein: recombinant; tags: His; single strand. (Polarisation of emitted light reports the rotation of a fluorescent probe.)
Chain of eIF4A1 Phe163His (P60842 whole entry F163H): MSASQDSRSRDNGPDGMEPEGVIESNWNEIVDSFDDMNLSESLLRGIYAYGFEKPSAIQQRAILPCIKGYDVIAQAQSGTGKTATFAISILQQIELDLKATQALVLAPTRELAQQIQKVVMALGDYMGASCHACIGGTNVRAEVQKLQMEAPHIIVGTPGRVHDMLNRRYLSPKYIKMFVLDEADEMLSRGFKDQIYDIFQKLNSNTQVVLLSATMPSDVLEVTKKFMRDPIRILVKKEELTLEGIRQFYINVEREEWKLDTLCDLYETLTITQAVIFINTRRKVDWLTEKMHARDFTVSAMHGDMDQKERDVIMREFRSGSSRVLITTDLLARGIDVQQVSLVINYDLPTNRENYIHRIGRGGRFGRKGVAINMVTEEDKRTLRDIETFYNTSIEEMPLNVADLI

Data set [2] addresses eIF4A1 Phe163Gly (Homo sapiens, UniProt P60842 1-406, F163G). The description is as above. As to conditions: protein: recombinant; tags: His; single strand.

Chain of eIF4A1 Phe163Gly (P60842 whole entry F163G): as the sequence (P60842 whole entry F163H) above, with H163G counted along it

For the molecule AGAGAGAGAGAGAGAGAGAG (ssRNA) [[AG]10 polypurine RNA], the figures for the Kd in data set [1] and in data set [2] were 16 ± 2.7 µM and 21 ± 6.7 µM, respectively.

The Kd is the free concentration of one partner at which half of the binding sites on the other are occupied at equilibrium, for simple one-to-one binding.
